Earlier results, collected in PMC3409362.
Where two headings read alike, the source gives them in different places.

Columns and labels:
[1] = target: F-actin (Oryctolagus cuniculus) (UniProt P68135)
[2] = target: F-actin (Oryctolagus cuniculus) (UniProt P68135); remark: listed apart in the source

| Substance | Kd [1] | Kd [2] |
| --- | --- | --- |
| V-ATPase B1 subunit (from UniProt P15313) | 150 nM | – |
| V-ATPase B2 subunit (from UniProt P21281) | – | 150 nM |
